This passage reports Kd results from paper PMC9897667 (2023).

In experiment [1] the target is extracellular domain of human RAGE (residues 1 to 344) (human, UniProt Q15109 23-344). The experiment can be described thus: SPR.
The target in experiment [2] is human TLR4 (ECD-His Tag, residues 1 to 631) (human, UniProt O00206 24-631). The experiment can be described thus: SPR. For orientation: Surface plasmon resonance follows binding to a sensor surface in real time, without labels.
human TLR4 (ECD-His Tag, residues 1 to 631), sequence (O00206 24-631): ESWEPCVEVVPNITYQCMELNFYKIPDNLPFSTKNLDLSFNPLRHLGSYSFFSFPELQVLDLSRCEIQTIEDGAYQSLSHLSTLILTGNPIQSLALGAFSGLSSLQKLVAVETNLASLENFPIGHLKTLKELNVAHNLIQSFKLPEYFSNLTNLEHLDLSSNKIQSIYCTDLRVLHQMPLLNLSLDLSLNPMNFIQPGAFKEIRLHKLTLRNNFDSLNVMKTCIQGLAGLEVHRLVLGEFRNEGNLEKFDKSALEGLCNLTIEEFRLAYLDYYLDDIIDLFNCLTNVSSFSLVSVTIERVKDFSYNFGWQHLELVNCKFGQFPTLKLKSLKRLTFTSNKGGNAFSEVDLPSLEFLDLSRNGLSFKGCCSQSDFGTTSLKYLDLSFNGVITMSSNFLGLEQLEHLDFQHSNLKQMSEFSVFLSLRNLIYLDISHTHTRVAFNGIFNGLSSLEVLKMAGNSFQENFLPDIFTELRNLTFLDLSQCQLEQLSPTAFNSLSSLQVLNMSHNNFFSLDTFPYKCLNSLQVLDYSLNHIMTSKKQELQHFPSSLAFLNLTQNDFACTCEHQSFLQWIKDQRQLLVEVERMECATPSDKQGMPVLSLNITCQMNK

extracellular domain of human RAGE (residues 1 to 344), sequence (Q15109 23-344): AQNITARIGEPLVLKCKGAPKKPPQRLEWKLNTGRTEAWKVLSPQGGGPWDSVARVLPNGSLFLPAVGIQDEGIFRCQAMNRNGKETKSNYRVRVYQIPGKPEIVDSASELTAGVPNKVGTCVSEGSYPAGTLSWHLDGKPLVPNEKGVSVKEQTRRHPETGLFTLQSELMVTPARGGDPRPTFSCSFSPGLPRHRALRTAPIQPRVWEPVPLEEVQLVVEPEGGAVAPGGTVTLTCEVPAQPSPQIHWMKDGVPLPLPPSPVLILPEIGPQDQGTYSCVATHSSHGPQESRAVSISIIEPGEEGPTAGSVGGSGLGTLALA

B1: recombinant human procathepsin L (pCTS-L) (natural protein)
chain: TLTFDHSLEAQWTKWKAMHNRLYGMNEEGWRRAVWEKNMKMIELHNQEYREGKHSFTMAMNAFGDMTSEEFRQVMNGFQNRKPRKGKVFQEPLFYEAPRSVDWREKGYVTPVKNQGQCGSCWAFSATGALEGQMFRKTGRLISLSEQNLVDCSGPQGNEGCNGGLMDYAFQYVQDNGGLDSEESYPYEATEESCKYNPKYSVANDTGFVDIPKQEKALMKAVATVGPISVAIDAGHESFLFYKEGIYFEPDCSSEDMDHGVLVVGYGFESTESDNNKYWLVKNSWGEEWGMGGYVKMAKDRRNHCGIASAASYPTV
For orientation: Kd means the constant that tells how readily two partners part at equilibrium. Read a low Kd as higher affinity. For B1, the results for the Kd in experiment [1] and in experiment [2] were 2.7 nM and 18 nM, respectively.
